# Target: ARPC4-His6x (human, UniProt P59998 1-168)
# Assay: far-Western, overlay or dot blot
# Settings: both partners purified
binder,measurement,value
"GST-Rv1626 (natural protein, also called Rv1626-pGEX4T3nn; not shown: GST, N-terminal, kept) MTGPTTDADAAVPRRVLIAEDEALIRMDLAEMLREEGYEIVGEAGDGQEAVELAELHKPDLVIMDVKMPRRDGIDAASEIASKRIAPIVVLTAFSQRDLVERARDAGAMAYLVKPFSISDLIPAIELAVSRFREITALEGEVATLSERLETRKLVERAKGLLQTKHGMTEPDAFKWIQRAAMDRRTTMKRVAEVVLETLGTPKDT",binding result,binds

# From article PMC3718739 (PLoS ONE, 2013)
